One may read the Kd as the free concentration of one partner at which half of the binding sites on the other are occupied at equilibrium, for simple one-to-one binding.

The data set deals with NSP12 (RNA-dependent RNA polymerase) (SARS-CoV-2, UniProt P0DTD1 P0DTD1:4393-5324). Kind of data set: FP.

B1: Scov2_7431_7555_RNA (ssRNA)
RNA: GGGCGAAAACGCCCCAUUUUAUUAUGUAUGGAAAAGUUAUGUGCAUGUUGUAGACGGUUGUAAUUCAUCAACUUGUAUGAUGUGUUACAAACGUAAUAGAGCAACAAGAGUCGAAUGUACAACUAUUGUUAAUGGUGUU
Take B1: the dissociation constant Kd is 17 nM.

The record behind these values is patent US20250263697, “COMPOSITIONS AND METHODS OF MODULATING RNA AND PROTEIN INTERACTIONS” (The Regents of the University of California, published 2025).
